The values below come from patent publication US20250264433A1.

The target of this assay is peptide #49+50 (combined sequences of EspB peptides #49 and #50) (Enteropathogenic Escherichia coli (EPEC)). As to the kind of experiment: ELISA, plate coated with peptide #49+50, serially diluted mAb, anti-human IgG-HRP.

B1: mAb-EspB-B7 (antibody, V domains shown)
VH: EVQLLESGGGLVQPGGSLRLSCAASGFTFSHYAMNWVRQAPGKGLEWVSAINSNGDSTYYPDTVKDRFTISRDNSKNTLYLQMNSLRAEDTAVYYCARDRRAGYFDYWGQGTLVTVSS
VL: DIVLTQPPSASGTPGQRVTISCSGSRDNIGKNYVSWYQQLPGTAPKLLIYRNNQRPSGVPDRFSGSKSGTSASLAISGLRSEDEADYYCSAWDTSLNAYVFGPGTQLTVL
For B1, the EC50 (read off the curve) was 0.4 µg/mL.
